B1: RAN GTPase-activating protein 1 (Arabidopsis thaliana (Mouse-ear cress)), Q9LE82 (parent)
chain: MDHSAKTTQNRVLSVKMWPPSKSTRLMLVERMTKNITTPSIFSRKYGLLSVEEAEQDAKRIEDLAFATANKHFQNEPDGDGTSAVHVYAKESSKLMLDVIKRGPQEESEVEVSKDGDVFFDISGGSRAFIEEEEARDLLRPLADPRNSYTKIRFSNRSFGSEAAKFAASVLSSIKDQLTEVDLSDFVAGRPEAEALEVMNMFSSALEGSKLRYLNLSDNALGEKGIRAFASLINSQHDLEELYLMNDGISEDAARAVRELLPSTDKIRVLQFHNNMTGDEGATAIAEIVRECPSLEDFRCSSTRIGSEGGVALAEALEHCSHLKKLDLRDNMFGVEGGIALAKTLSVLTHLTEIYMSYLNLEDEGTEALSEALLKSAPSLEVLELAGNDITVKSTGNLAACIASKQSLAKLNLSENELKDEGTILIAKAVEGHDQLVEVDLSTNMIRRAGARALAQTVVKKNTFKLLNINGNFISEEGIDEVNDMFKDCLDKLVPLDDNDPEGEDFEDEDEEEEGEDGNELESKLGSLKIKQGEE

Variants of: B1
Conditions: with kn12c_arath KIN12C

Variant	effect of a mutation on the interaction
MDHSAKTTQNRVLSVKMAAPSKSTRLMLVERMTKNITTPSIFSRKYGLLSVEEAEQDAKRIEDLAFATANKHFQNEPDGDGTSAVHVYAKESSKLMLDVIKRGPQEESEVEVSKDGDVFFDISGGSRAFIEEEEARDLLRPLADPRNSYTKIRFSNRSFGSEAAKFAASVLSSIKDQLTEVDLSDFVAGRPEAEALEVMNMFSSALEGSKLRYLNLSDNALGEKGIRAFASLINSQHDLEELYLMNDGISEDAARAVRELLPSTDKIRVLQFHNNMTGDEGATAIAEIVRECPSLEDFRCSSTRIGSEGGVALAEALEHCSHLKKLDLRDNMFGVEGGIALAKTLSVLTHLTEIYMSYLNLEDEGTEALSEALLKSAPSLEVLELAGNDITVKSTGNLAACIASKQSLAKLNLSENELKDEGTILIAKAVEGHDQLVEVDLSTNMIRRAGARALAQTVVKKNTFKLLNINGNFISEEGIDEVNDMFKDCLDKLVPLDDNDPEGEDFEDEDEEEEGEDGNELESKLGSLKIKQGEE [W18A;P19A]	decreasing interaction
